For six variants, screen value results are on record in PMC5065529, “Wnt Signalosome Assembly by DEP Domain Swapping of Dishevelled” (Molecular Cell, 2016).

The labels stand for the following.
B1: SNAP-FZD5 (Frizzled 5), wild type [human] / DEP_(414–507)-GFP, minimal DEP domain of DVL2 [human] (parent)
chain 1: GRGLSVHTDMASVTKAMAAPESGLEVRDRMWLKITIPNAFLGSDVVDWLYHHVEGFPERREARKYASGLLKAGLIRHTVNKITFSEQCYYVFGD
chain 2: ASKAPVCQEITVPMCRGIGYNLTHMPNQFNHDTQDEAGLEVHQFWPLVEIQCSPDLRFFLCSMYTPICLPDYHKPLPPCRSVCERAKAGCSPLMRQYGFAWPERMSCDRLPVLGRDAEVLCMDYNRSEATTAPPRPFPAKPTLPGPPGAPASGGECPAGGPFVCKCREPFVPILKESHPLYNKVRTGQVPNCAVPCYQPSFSADERTFATFWIGLWSVLCFISTSTTVATFLIDMERFRYPERPIIFLSACYLCVSLGFLVRLVVGHASVACSREHNHIHYETTGPALCTIVFLLVYFFGMASSIWWVILSLTWFLAAGMKWGNEAIAGYAQYFHLAAWLIPSVKSITALALSSVDGDPVAGICYVGNQNLNSLRGFVLGPLVLYLLVGTLFLLAGFVSLFRIRSVIKQGGTKTDKLEKLMIRIGIFTLLYTVPASIVVACYLYEQHYRESWEAALTCACPGHDTGQPRAKPEYWVLMLKYFMCLVVGITSGVWIWSGKTVESWRRFTSRCCCRPRRGHKSGGAMAAGDYPEASAALTGRTGPPGPAATYHKQVSLSHV

The variants in the assay derive from B1. The experiment in a line: FZD5-dependent PM recruitment of DEP-GFP (cell scoring). Particulars: with DEP_(414–507)-GFP, 100 cells scored in each case.

With chain 2 ASKAPVCQEITVPMCRGIGYNLTHMPNQFNHDTQDEAGLEVHQFWPLVEIQCSPDLRFFLCSMYTPICLPDYHKPLPPCRSVCERAKAGCSPLMRQYGFAWPERMSCDRLPVLGRDAEVLCMDYNRSEATTAPPRPFPAKPTLPGPPGAPASGGECPAGGPFVCKCREPFVPILKESHPLYNKVRTGQVPNCAVPCYQPSFSADERTFATFWIGLWSVLCFISTSTTVATFLIDMERFRYPERPIIFLSACYLCVSLGFLVRLVVGHASVACSREHNHIHYETTGPALCTIVFLLVYFFGMASSIWWVILSLTWFLAAGMKWGNEAIAGYAQYFHLAAWLIPSVKSITALALSSVDGDPVAGICYVGNQNLNSLRGFVLGPLVLYLLVGTLFLLAGFVSLFRIRSVIKQGGTKTDKAEKLMIRIGIFTLLYTVPASIVVACYLYEQHYRESWEAALTCACPGHDTGQPRAKPEYWVLMLKYFMCLVVGITSGVWIWSGKTVESWRRFTSRCCCRPRRGHKSGGAMAAGDYPEASAALTGRTGPPGPAATYHKQVSLSHV [chain 2 L417A], the screen value runs as follows: (parent: 52, read off a plot) 5 % of cells; (parent: 88, read off a plot) 37 % of cells.
As to chain 2 ASKAPVCQEITVPMCRGIGYNLTHMPNQFNHDTQDEAGLEVHQFWPLVEIQCSPDLRFFLCSMYTPICLPDYHKPLPPCRSVCERAKAGCSPLMRQYGFAWPERMSCDRLPVLGRDAEVLCMDYNRSEATTAPPRPFPAKPTLPGPPGAPASGGECPAGGPFVCKCREPFVPILKESHPLYNKVRTGQVPNCAVPCYQPSFSADERTFATFWIGLWSVLCFISTSTTVATFLIDMERFRYPERPIIFLSACYLCVSLGFLVRLVVGHASVACSREHNHIHYETTGPALCTIVFLLVYFFGMASSIWWVILSLTWFLAAGMKWTNEAIAGYAQYFHLAAWLIPSVKSITALALSSVDGDPVAGICYVGNQNLNSLRGFVLGPLVLYLLVGTLFLLAGFVSLFRIRSVIKQGGTKTDKLEKLMIRIGIFTLLYTVPASIVVACYLYEQHYRESWEAALTCACPGHDTGQPRAKPEYWVLMLKYFMCLVVGITSGVWIWSGKTVESWRRFTSRCCCRPRRGHKSGGAMAAGDYPEASAALTGRTGPPGPAATYHKQVSLSHV [chain 2 G323T], the screen value was 56 % of cells (parent: 52, read off a plot) and 92 % of cells (parent: 88, read off a plot).
For chain 2 ASKAPVCQEITVPMCRGIGYNLTHMPNQFNHDTQDEAGLEVHQFWPLVEIQCSPDLRFFLCSMYTPICLPDYHKPLPPCRSVCERAKAGCSPLMRQYGFAWPERMSCDRLPVLGRDAEVLCMDYNRSEATTAPPRPFPAKPTLPGPPGAPASGGECPAGGPFVCKCREPFVPILKESHPLYNKVRTGQVPNCAVPCYQPSFSADERTFATFWIGLWSVLCFISTSTTVATFLIDMERFRYPERPIIFLSACYLCVSLGFLVRLVVGHASVACSREHNHIHYETTGPALCTIVFLLVYFFGMASSIWWVILSLTWFLAAGMAWGNEAIAGYAQYFHLAAWLIPSVKSITALALSSVDGDPVAGICYVGNQNLNSLRGFVLGPLVLYLLVGTLFLLAGFVSLFRIRSVIKQGGTKTDKLEKLMIRIGIFTLLYTVPASIVVACYLYEQHYRESWEAALTCACPGHDTGQPRAKPEYWVLMLKYFMCLVVGITSGVWIWSGKTVESWRRFTSRCCCRPRRGHKSGGAMAAGDYPEASAALTGRTGPPGPAATYHKQVSLSHV [chain 2 K321A], in that order: 45 % of cells and 92 % of cells.
Consider chain 2 ASKAPVCQEITVPMCRGIGYNLTHMPNQFNHDTQDEAGLEVHQFWPLVEIQCSPDLRFFLCSMYTPICLPDYHKPLPPCRSVCERAKAGCSPLMRQYGFAWPERMSCDRLPVLGRDAEVLCMDYNRSEATTAPPRPFPAKPTLPGPPGAPASGGECPAGGPFVCKCREPFVPILKESHPLYNKVRTGQVPNCAVPCYQPSFSADERTFATFWIGLWSVLCFISTSTTVATFLIDMERFRYPERPIIFLSACYLCVSLGFLVRLVVGHASVACSREHNHIHYETTGPALCTIVFLLVYFFGMASSIWWVILSLTWFLAAGMKWGNEAIAGYAQYFHLAAWLIPSVKSITALALSSVDGDPVAGICYVGNQNLNSLRGFVLGPLVLYLLVGTLFLLAGFVSLFRARSVIKQGGTKTDKLEKLMIRIGIFTLLYTVPASIVVACYLYEQHYRESWEAALTCACPGHDTGQPRAKPEYWVLMLKYFMCLVVGITSGVWIWSGKTVESWRRFTSRCCCRPRRGHKSGGAMAAGDYPEASAALTGRTGPPGPAATYHKQVSLSHV [chain 2 I403A], for which the screen value is 34 % of cells (parent: 52, read off a plot) and 70 % of cells (parent: 88, read off a plot).
For the variant chain 2 ASKAPVCQEITVPMCRGIGYNLTHMPNQFNHDTQDEAGLEVHQFWPLVEIQCSPDLRFFLCSMYTPICLPDYHKPLPPCRSVCERAKAGCSPLMRQYGFAWPERMSCDRLPVLGRDAEVLCMDYNRSEATTAPPRPFPAKPTLPGPPGAPASGGECPAGGPFVCKCREPFVPILKESHPLYNKVRTGQVPNCAVPCYQPSFSADERTFATFWIGLWSVLCFISTSTTVATFLIDMERFRYPERPIIFLSACYLCVSLGFLVRLVVGHASVACSREHNHIHYETTGPALCTIVFLLVYFFGMASSIWWVILSLTWFLAAGMKWGNEAIAGYAQYFHLAAWLIPSVKSITALALSSVDGDPVAGICYVGNQNLNSLRGFVLGPLVLYLLVGTLFLLAGFVSLFRIRSVIKQGGTKTDKLEKLMIRIGIFTLLYTVPASIVVACYLYEQHYRESWEAALTCACPGHDTGQPRAKPEYWVLMLKYFMCLVVGITSGVWIWSGATVESWRRFTSRCCCRPRRGHKSGGAMAAGDYPEASAALTGRTGPPGPAATYHKQVSLSHV [chain 2 K499A], the screen value is 5 % of cells (parent: 52, read off a plot) and 62 % of cells (parent: 88, read off a plot).
For chain 2 ASKAPVCQEITVPMCRGIGYNLTHMPNQFNHDTQDEAGLEVHQFWPLVEIQCSPDLRFFLCSMYTPICLPDYHKPLPPCRSVCERAKAGCSPLMRQYGFAWPERMSCDRLPVLGRDAEVLCMDYNRSEATTAPPRPFPAKPTLPGPPGAPASGGECPAGGPFVCKCREPFVPILKESHPLYNKVRTGQVPNCAVPCYQPSFSADERTFATFWIGLWSVLCFISTSTTVATFLIDMERFRYPERPIIFLSACYLCVSLGFLVRLVVGHASVACSREHNHIHYETTGPALCTIVFLLVYFFGMASSIWWVILSLTWFLAAGMKWGNEAIAGYAQYFHLAAWLIPSVKSITALALSSVDGDPVAGICYVGNQNLNSLRGFVLGPLVLYLLVGTLFLLAGFVSLFRIRSVIKQGGTKTDKLEKLMIRIGIFTLLYTVPASIVVACYLYEQHYRESWEAALTCACPGHDTGQPRAKPEYWVLMLKYFMCLVVGITSGVWIWSGKTVASWRRFTSRCCCRPRRGHKSGGAMAAGDYPEASAALTGRTGPPGPAATYHKQVSLSHV [chain 2 E502A], the screen value by setting is: (parent: 52, read off a plot) 50 % of cells; (parent: 88, read off a plot) 92 % of cells.
